Reference: US20230149515A1, “INHIBITION OF SARS-COV-2 VIRAL ENTRY THROUGH ORAL ADMINISTRATION OF L[…] USES THEREOF” (priority 2020, published 2023)

Tested on: SARS-CoV-2
Format: cell-based

B1: lactoferrin (protein, UniProt P02788 20-710, looked up)
Lactotransferrin: GRRRSVQWCAVSQPEATKCFQWQRNMRKVRGPPVSCIKRDSPIQCIQAIAENRADAVTLDGGFIYEAGLAPYKLRPVAAEVYGTERQPRTHYYAVAVVKKGGSFQLNELQGLKSCHTGLRRTAGWNVPIGTLRPFLNWTGPPEPIEAAVARFFSASCVPGADKGQFPNLCRLCAGTGENKCAFSSQEPYFSYSGAFKCLRDGAGDVAFIRESTVFEDLSDEAERDEYELLCPDNTRKPVDKFKDCHLARVPSHAVVARSVNGKEDAIWNLLRQAQEKFGKDKSPKFQLFGSPSGQKDLLFKDSAIGFSRVPPRIDSGLYLGSGYFTAIQNLRKSEEEVAARRARVVWCAVGEQELRKCNQWSGLSEGSVTCSSASTTEDCIALVLKGEADAMSLDGGYVYTAGKCGLVPVLAENYKSQQSSDPDPNCVDRPVEGYLAVAVVRRSDTSLTWNSVKGKKSCHTAVDRTAGWNIPMGLLFNQTGSCKFDEYFSQSCAPGSDPRSNLCALCIGDEQGENKCVPNSNERYYGYTGAFRCLAENAGDVAFVKDVTVLQNTDGNNNEAWAKDLKLADFALLCLDGKRKPVTEARSCHLAMAPNHAVVSRMDKVERLKQVLLHQQAKFGRNGSDCPDKFCLFQSETKNLLFNDNTECLARLHGKTTYEKYLGPQYVAGITNLKKCSTSPLLEACEFLRK
Huh-7 cells, FIG. 2
  efficacy in preventing SARS-CoV-2 infection: ~100%
All concentrations of lactoferrin tested, FIG. 3B
  inhibition of SARS-CoV-2 infection (efficacy): 100%
Dose response study, all concentrations tested ranging from 200 ug/mL to 12.5 ug/mL, compared to viral control, FIG. 3A
  reduction in SARS-Cov-2 synctitia: > 95%
